Results reported in article PMC7875428.
pKd: −log10 of the molar value.

Legend:
[1] = target: 6×His-tagged human DSG2 EC1-5 (amino acids A1-A553) from wild-type Expi293F cells (human); assay: BLI; biotinylated DSG2 variants loaded on streptavidin biosensors (immobilized at 1 μg/mL); FimH^LD or FimH^Q133K in solution, 10 μM to 156 nM, 15 min association, 20 min dissociation; 10 mM HEPES pH 7.4, 150 mM NaCl, 1 mM CaCl2, 3 mM EDTA, 0.005% P20, 1% BSA, 25°C; Octet-Red96; global 1:1 fit with drifting baseline; apparent constants
[2] = target: 6×His-tagged human DSG2 EC1-5 (amino acids A1-A553) from Expi293F GnTI- cells (human); assay: as above

“lectin domain of FimH (FimH^LD, amino acids F1-G160) (from UniProt P08191 22-181) (domain or fragment)” showed a pKd [1] of 5.80 and a pKd [2] of 6.32.
